Assays:
Format in all cases: biochemical
[1] = ω-transaminase enzyme activity assay (7-aminoheptanol to 7-oxoheptanol), L-alanine formation by RP-HPLC; conditions: for acceptance of 7-aminoheptanol as substrate (conversion of pyruvate to L-alanine), confirmed against the empty vector control: cell free extract, 10 mM 7-aminoheptanol, 10 mM pyruvate, pH 7.5, 25° C., 4 h, FIG. 17; for acceptance of 7-oxoheptanol as substrate forming 7-aminoheptanol: concluded from the reversibility of the ω-transaminase activity (Example 1)
Experimental: A nucleotide sequence encoding an N-terminal His-tag was added to the Chromobacterium violaceum, Pseudomonas syringae, and Rhodobacter sphaeroides nucleic acids encoding the ω-transaminases of SEQ ID NOs: 7, 9 and 10, respectively (see FIGS. 6E-6F), such that N-terminal HIS tagged ω-transaminases could be produced. The modified genes were cloned into a pET21a expression vector under the T7 promoter. Each expression vector was transformed into a BL21[DE3] E. coli host. Each resulting recombinant E. coli strain was cultivated at 37° C. in a 250 mL shake flask culture containing 50 mL LB media and antibiotic selection pressure, with shaking at 230 rpm. Each culture was induced overnight at 16° C. using 1 mM IPTG.
(§1) The pellet from each induced shake flask culture was harvested via centrifugation. Each pellet was resuspended and lysed via sonication. The cell debris was separated from the supernatant via centrifugation and the cell free extract was used immediately in enzyme activity assays.
Enzyme activity assays in the reverse direction (i.e., 7-aminoheptanol to 7-oxoheptanol) were performed in a buffer composed of a final concentration of 50 mM HEPES buffer (pH=7.5), 10 mM 7-aminoheptanol, 10 mM pyruvate, and 100 μM pyridoxyl 5′ phosphate. Each enzyme activity assay reaction was initiated by adding cell free extract of the ω-transaminase gene product or the empty vector control to the assay buffer containing the 7-aminoheptanol and then incubated at 25° C. for 4 h, with shaking at 250 rpm. The formation of L-alanine was quantified via RP-HPLC.

[2] = ω-transaminase enzyme activity assay, reverse direction (7-aminoheptanoate to pimelate semialdehyde), L-alanine formation by RP-HPLC; conditions: cell free extract; 10 mM 7-aminoheptanoate, 10 mM pyruvate, pH 7.5, 25° C., 4 h; FIG. 13
Experimental: (§2) A nucleotide sequence encoding an N-terminal His-tag was added to the nucleic acid sequences from Chromobacterium violaceum, Pseudomonas syringae, Rhodobacter sphaeroides, and Vibrio fluvialis encoding the ω-transaminases of SEQ ID NOs: 7, 9, 10, and 12, respectively (see FIGS. 6E-6F) such that N-terminal HIS tagged ω-transaminases could be produced. Each of the resulting modified genes was cloned into a pET21a expression vector under control of the T7 promoter and each expression vector was transformed into a BL21[DE3] E. coli host. The resulting recombinant E. coli strains were cultivated at 37° C. in a 250 mL shake flask culture containing 50 mL LB media and antibiotic selection pressure, with shaking at 230 rpm. Each culture was induced overnight at 16° C. using 1 mM IPTG.
as §1
Enzyme activity assays in the reverse direction (i.e., 7-aminoheptanoate to pimelate semialdehyde) were performed in a buffer composed of a final concentration of 50 mM HEPES buffer (pH=7.5), 10 mM 7-aminoheptanoate, 10 mM pyruvate, and 100 μM pyridoxyl 5′ phosphate. Each enzyme activity assay reaction was initiated by adding cell free extract of the ω-transaminase gene product or the empty vector control to the assay buffer containing the 7-aminoheptanoate and incubated at 25° C. for 4 h, with shaking at 250 rpm. The formation of L-alanine from pyruvate was quantified via RP-HPLC.

[3] = ω-transaminase enzyme activity assay, forward direction (pimelate semialdehyde to 7-aminoheptanoate), pyruvate formation by RP-HPLC; conditions: for acceptance of pimelate semialdehyde as substrate (conversion of L-alanine to pyruvate), confirmed against the empty vector control: cell free extract, 10 mM pimelate semialdehyde, 10 mM L-alanine, pH 7.5, 25° C., 4 h, FIG. 14; for reversibility of the ω-transaminase activity: pimelate semialdehyde accepted, 7-aminoheptanoate synthesized: conclusion from forward and reverse direction assays of Example 1
Experimental: as §2, §1
Enzyme activity in the forward direction (i.e., pimelate semialdehyde to 7-aminoheptanoate) was confirmed for the transaminases of SEQ ID NO: 9, SEQ ID NO: 10, and SEQ ID NO: 12. Enzyme activity assays were performed in a buffer composed of a final concentration of 50 mM HEPES buffer (pH=7.5), 10 mM pimelate semialdehyde, 10 mM L-alanine, and 100 μM pyridoxyl 5′ phosphate. Each enzyme activity assay reaction was initiated by adding a cell free extract of the ω-transaminase gene product or the empty vector control to the assay buffer containing the pimelate semialdehyde and incubated at 25° C. for 4 h, with shaking at 250 rpm. The formation of pyruvate was quantified via RP-HPLC.

| Molecule | acceptance of 7-aminoheptanol as substrate (conversion of pyruvate to L-alanine), confirmed against the empty vector control [1] | acceptance of 7-oxoheptanol as substrate forming 7-aminoheptanol [1] | acceptance of 7-aminoheptanoate as substrate (conversion of pyruvate to L-alanine), confirmed against the empty vector control [2] | acceptance of pimelate semialdehyde as substrate (conversion of L-alanine to pyruvate), confirmed against the empty vector control [3] | reversibility of the ω-transaminase activity: pimelate semialdehyde accepted, 7-aminoheptanoate synthesized [3] |
| --- | --- | --- | --- | --- | --- |
| SEQ ID NO: 10: Rhodobacter sphaeroides ω-transaminase, N-terminal HIS tagged | accepted 7-aminoheptanol as substrate | accept 7-oxoheptanol as substrate and form 7-aminoheptanol | accepted 7-aminoheptanote as substrate | accepted pimelate semialdehyde as substrate | accepted pimelate semialdehyde as substrate and synthesized 7-aminoheptanoate as a reaction product |
| SEQ ID NO: 7: Chromobacterium violaceum ω-transaminase, N-terminal HIS tagged (protein, listed as Chromobacterium violaceum, N-terminal His tag, Chromobacterium violaceum ω-transaminase, N-terminal HIS tagged) MQKQRTTSQWRELDAAHHLHPFTDTASLNQAGARVMTRGEGVYLWDSEGNKIIDGMAGLWCVNVGYGRKDFAEAARRQMEELPFYNTFFKTTHPAVVELSSLLAEVTPAGFDRVFYTNSGSESVDTMIRMVRRYWDVQGKPEKKTLIGRWNGYHGSTIGGASLGGMKYMHEQGDLPIPGMAHIEQPWWYKHGKDMTPDEFGVVAARWLEEKILEIGADKVAAFVGEPIQGAGGVIVPPATYWPEIERICRKYDVLLVADEVICGFGRTGEWFGHQHFGFQPDLFTAAKGLSSGYLPIGAVFVGKRVAEGLIAGGDFNHGFTYSGHPVCAAVAHANVAALRDEGIVQRVKDDIGPYMQKRWRETFSRFEHVDDVRGVGMVQAFTLVKNKAKRELFPDFGEIGTLCRDIFFRNNLIMRACGDHIVSAPPLVMTRAEVDEMLAVAERCLEEFEQTLKARGLA | accepted 7-aminoheptanol as substrate | accept 7-oxoheptanol as substrate and form 7-aminoheptanol | accepted 7-aminoheptanote as substrate |  | accepted pimelate semialdehyde as substrate and synthesized 7-aminoheptanoate as a reaction product |
| SEQ ID NO: 9: Pseudomonas syringae ω-transaminase, N-terminal HIS tagged (protein, listed as Pseudomonas syringae, N-terminal His tag, Pseudomonas syringae ω-transaminase, N-terminal HIS tagged) MSANNPQTLEWQALSSEHHLAPFSDYKQLKEKGPRIITRAEGVYLWDSEGNKILDGMSGLWCVAIGYGREELADAASKQMRELPYYNLFFQTAHPPVLELAKAISDIAPEGMNHVFFTGSGSEGNDTMLRMVRHYWALKGQPNKKTIISRVNGYHGSTVAGASLGGMTYMHEQGDLPIPGVVHIPQPYWFGEGGDMTPDEFGIWAAEQLEKKILELGVENVGAFIAEPIQGAGGVIVPPDSYWPKIKEILSRYDILFAADEVICGFGRTSEWFGSDFYGLRPDMMTIAKGLTSGYVPMGGLIVRDEIVAVLNEGGDFNHGFTYSGHPVAAAVALENIRILREEKIVERVRSETAPYLQKRLRELSDHPLVGEVRGVGLLGAIELVKDKTTRERYTDKGAGMICRTFCFDNGLIMRAVGDTMIIAPPLVISFAQIDELVEKARTCLDLTLAVLQG | accepted 7-aminoheptanol as substrate | accept 7-oxoheptanol as substrate and form 7-aminoheptanol | accepted 7-aminoheptanote as substrate | accepted pimelate semialdehyde as substrate | accepted pimelate semialdehyde as substrate and synthesized 7-aminoheptanoate as a reaction product |
| SEQ ID NO: 12: Vibrio fluvialis ω-transaminase, N-terminal HIS tagged (protein, listed as Vibrio fluvialis, N-terminal His tag, Vibrio fluvialis ω-transaminase, N-terminal HIS tagged) MNKPQSWEARAETYSLYGFTDMPSLHQRGTVVVTHGEGPYIVDVNGRRYLDANSGLWNMVAGFDHKGLIDAAKAQYERFPGYHAFFGRMSDQTVMLSEKLVEVSPFDSGRVFYTNSGSEANDTMVKMLWFLHAAEGKPQKRKILTRWNAYHGVTAVSASMTGKPYNSVFGLPLPGFVHLTCPHYWRYGEEGETEEQFVARLARELEETIQREGADTIAGFFAEPVMGAGGVIPPAKGYFQAILPILRKYDIPVISDEVICGFGRTGNTWGCVTYDFTPDAIISSKNLTAGFFPMGAVILGPELSKRLETAIEAIEEFPHGFTASGHPVGCAIALKAIDVVMNEGLAENVRRLAPRFEERLKHIAERPNIGEYRGIGFMWALEAVKDKASKTPFDGNLSVSERIANTCTDLGLICRPLGQSVVLCPPFILTEAQMDEMFDKLEKALDKVFAEVA |  |  | accepted 7-aminoheptanote as substrate | accepted pimelate semialdehyde as substrate | accepted pimelate semialdehyde as substrate and synthesized 7-aminoheptanoate as a reaction product |

Source: US10920254B2, “Methods and materials for producing 5 and 7-carbon monomers” (INVISTA North America S.á.r.l., priority 2015, dated 2021)
